Laboratory results published in US20140199316A1 (published 2014).

Target: T1, recombinant mouse E-selectin-human Fc chimera (mouse, UniProt Q00690 22-557)
T1 construct: Bought reagent (R&D Systems); Used as the probe in western blots and detected with HRP goat anti-human Ig; also called E-selectin-Ig chimera; E-Ig; not shown: human Fc
T1 sequence (looked up): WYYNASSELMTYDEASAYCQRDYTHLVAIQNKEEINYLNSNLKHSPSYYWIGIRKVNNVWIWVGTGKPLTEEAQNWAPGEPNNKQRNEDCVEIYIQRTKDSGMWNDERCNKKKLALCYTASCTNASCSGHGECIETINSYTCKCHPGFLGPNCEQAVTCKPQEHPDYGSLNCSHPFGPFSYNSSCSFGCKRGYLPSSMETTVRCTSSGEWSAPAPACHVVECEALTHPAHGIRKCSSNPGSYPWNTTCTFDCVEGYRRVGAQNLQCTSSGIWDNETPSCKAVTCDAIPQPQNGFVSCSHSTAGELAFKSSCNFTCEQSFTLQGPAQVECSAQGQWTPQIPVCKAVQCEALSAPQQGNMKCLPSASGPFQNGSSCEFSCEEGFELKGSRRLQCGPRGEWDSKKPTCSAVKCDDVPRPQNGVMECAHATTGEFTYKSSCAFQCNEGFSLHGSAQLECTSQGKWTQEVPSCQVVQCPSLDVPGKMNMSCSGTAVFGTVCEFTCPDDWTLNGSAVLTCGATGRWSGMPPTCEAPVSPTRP
Experiment: western blot of ML lysates and WGA-purified glycoproteins, reducing SDS-PAGE

binding result: binds
B1: P-selectin glycoprotein ligand-1 (PSGL-1), Cutaneous Lymphocyte Antigen glycoform, from ML lysates (ligand, human, UniProt Q14242 42-412, looked up)
chain: QATEYEYLDYDFLPETEPPEMLRNSTDTTPLTGPGTPESTTVEPAARRSTGLDAGGAVTELTTELANMGNLSTDSAAMEIQTTQPAATEAQTTQPVPTEAQTTPLAATEAQTTRLTATEAQTTPLAATEAQTTPPAATEAQTTQPTGLEAQTTAPAAMEAQTTAPAAMEAQTTPPAAMEAQTTQTTAMEAQTTAPEATEAQTTQPTATEAQTTPLAAMEALSTEPSATEALSMEPTTKRGLFIPFSVSSVTHKGIPMAASNLSVNYPVGAPDHISVKQCLLAILILALVATIFFVCTVVLAVRLSRKGHMYPVRNYSPTEMVCISSLLPDGGEGPSATANGGLSKAKSPGLTPEPREDREGDDLTLHSFLP
modifications: sialofucosylated glycans
notes: Named only by the position of its band in the blot; also called CLA; ~140 kDa E-selectin ligand
